The values that follow come from PMC9482650, “Quantitative fragmentomics allow affinity mapping of interactomes” (Nature Communications, 2022).

Among the targets are GORASP1, Q9BQQ3; Inadl_9, Q8NI35; GRID2IP_2, A4D2P6; Inadl_8, Q8NI35; GRIP2_6, Q9C0E4; PARD3_3, Q8TEW0; DLG2_3, Q15700; AHNAK1, Q09666; GRIP2_7, Q9C0E4; DLG1_3, Q12959; MAGI1_1, Q96QZ7; GOPC, Q9HD26.
What all share (test): holdup assay
Holding throughout (design): key: below the threshold = too weak to quantify, mostly under pKd 3.1 to 4

A further assay deals with T1, SNTG1, Q9NSN8.
T1 sequence (Q9NSN8 52-150, limits assumed, looked up): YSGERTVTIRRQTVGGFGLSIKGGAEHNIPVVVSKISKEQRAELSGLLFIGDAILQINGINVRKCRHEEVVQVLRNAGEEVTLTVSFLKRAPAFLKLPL

In a further assay the target is T2, GRIP1_2, Q9Y3R0.
T2 sequence (Q9Y3R0 145-248, limits assumed, looked up): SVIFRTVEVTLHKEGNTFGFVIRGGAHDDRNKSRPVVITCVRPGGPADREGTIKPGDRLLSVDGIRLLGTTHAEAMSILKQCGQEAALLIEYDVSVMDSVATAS

A further assay addresses T3, SNTG2, Q9NY99.
T3 sequence (Q9NY99 68-166, limits assumed, looked up): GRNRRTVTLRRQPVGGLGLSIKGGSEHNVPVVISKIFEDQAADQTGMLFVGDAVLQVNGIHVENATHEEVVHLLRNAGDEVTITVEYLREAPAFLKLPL

For the next assay, the target named is T4, SHANK1, Q9Y566.
T4 sequence (Q9Y566 658-767, limits assumed, looked up): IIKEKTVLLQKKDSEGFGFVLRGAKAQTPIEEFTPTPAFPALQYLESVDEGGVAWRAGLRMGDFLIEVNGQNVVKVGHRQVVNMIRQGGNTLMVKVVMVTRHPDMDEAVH

The next assay deals with T5, MPDZ_5, O75970.
T5 sequence (O75970 695-796, limits assumed, looked up): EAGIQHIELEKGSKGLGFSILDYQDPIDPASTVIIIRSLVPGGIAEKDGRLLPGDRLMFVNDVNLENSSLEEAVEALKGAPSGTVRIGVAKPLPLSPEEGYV

The next assay concerns the target T6, APBA2_1, Q99767.
T6 sequence (Q99767 563-664, limits assumed, looked up): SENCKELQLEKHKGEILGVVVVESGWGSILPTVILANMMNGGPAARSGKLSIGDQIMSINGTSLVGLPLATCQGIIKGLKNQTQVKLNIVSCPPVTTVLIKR

The next assay concerns the target T7, TJP3_3, O95049.
T7 sequence (O95049 375-456, limits assumed, looked up): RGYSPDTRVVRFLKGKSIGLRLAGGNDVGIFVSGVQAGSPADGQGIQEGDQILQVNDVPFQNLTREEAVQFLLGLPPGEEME

Another assay deals with T8, APBA3_1, O96018.
T8 sequence (O96018 389-490, limits assumed, looked up): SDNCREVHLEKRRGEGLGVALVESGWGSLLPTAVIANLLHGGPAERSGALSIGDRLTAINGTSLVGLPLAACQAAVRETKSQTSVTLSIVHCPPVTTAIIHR

For a further assay, the target named is T9, NHERF3_1, Q5T2W1.
T9 sequence (Q5T2W1 4-100, limits assumed, looked up): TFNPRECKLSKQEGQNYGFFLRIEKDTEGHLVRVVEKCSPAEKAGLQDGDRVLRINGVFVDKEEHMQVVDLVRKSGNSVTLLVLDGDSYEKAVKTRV

The next assay concerns the target T10, APBA1_1, Q02410.
T10 sequence (Q02410 651-752, limits assumed, looked up): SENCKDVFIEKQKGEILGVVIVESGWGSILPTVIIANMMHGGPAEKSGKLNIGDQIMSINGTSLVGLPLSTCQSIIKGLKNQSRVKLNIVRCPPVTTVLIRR

The target in a further assay is T11, GRIP1_5, Q9Y3R0.
T11 sequence (Q9Y3R0 568-668, limits assumed, looked up): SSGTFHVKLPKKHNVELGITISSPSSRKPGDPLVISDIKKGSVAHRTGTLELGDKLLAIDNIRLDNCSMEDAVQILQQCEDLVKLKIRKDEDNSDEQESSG

The target in another assay is T12, SNTB1, Q13884.
T12 sequence (Q13884 107-205, limits assumed, looked up): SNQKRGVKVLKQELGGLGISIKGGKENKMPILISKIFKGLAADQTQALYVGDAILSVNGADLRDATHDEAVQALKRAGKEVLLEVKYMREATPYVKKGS

[1] abbreviates: plain residues with an end cap or a label only (N-terminal biotin on a linker: ado-ado).
[2] abbreviates: modified: phospho on S at position -3 from the C-terminal residue.
Setting [3] is: modified: acetyl on K at position -1 from the C-terminal residue.

Sequence of DLG1_3, Q12959 (Q12959 457-571): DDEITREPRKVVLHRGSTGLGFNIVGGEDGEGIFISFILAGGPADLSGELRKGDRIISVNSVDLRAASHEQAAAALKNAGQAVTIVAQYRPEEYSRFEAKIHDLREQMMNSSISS
Sequence of Inadl_8, Q8NI35 (Q8NI35 1425-1530): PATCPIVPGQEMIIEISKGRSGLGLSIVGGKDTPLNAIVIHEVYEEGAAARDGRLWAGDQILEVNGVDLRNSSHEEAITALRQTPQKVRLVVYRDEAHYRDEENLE
Sequence of AHNAK1, Q09666 (Q09666 4-100): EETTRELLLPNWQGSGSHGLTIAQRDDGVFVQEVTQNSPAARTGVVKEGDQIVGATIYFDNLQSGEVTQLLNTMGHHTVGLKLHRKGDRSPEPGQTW
Sequence of GRIP2_6, Q9C0E4 (Q9C0E4 648-740): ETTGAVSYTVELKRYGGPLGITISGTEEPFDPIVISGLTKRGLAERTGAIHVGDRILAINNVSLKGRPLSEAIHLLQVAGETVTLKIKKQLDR
Sequence of MAGI1_1, Q96QZ7 (Q96QZ7 1-106): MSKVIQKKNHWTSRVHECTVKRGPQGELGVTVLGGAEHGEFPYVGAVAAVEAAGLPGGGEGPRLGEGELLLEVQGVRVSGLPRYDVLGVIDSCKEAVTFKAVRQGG
Sequence of GORASP1, Q9BQQ3 (Q9BQQ3 1-208): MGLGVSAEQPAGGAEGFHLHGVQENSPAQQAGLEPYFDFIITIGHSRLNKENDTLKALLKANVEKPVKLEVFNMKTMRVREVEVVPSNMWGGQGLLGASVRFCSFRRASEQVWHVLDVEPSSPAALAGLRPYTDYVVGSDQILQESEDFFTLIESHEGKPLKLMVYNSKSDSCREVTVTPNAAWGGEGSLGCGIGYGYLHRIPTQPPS
Sequence of PARD3_3, Q8TEW0 (Q8TEW0 582-685): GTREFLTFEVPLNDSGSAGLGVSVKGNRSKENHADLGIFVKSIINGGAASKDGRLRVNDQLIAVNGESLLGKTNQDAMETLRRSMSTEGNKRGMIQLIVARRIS
Sequence of Inadl_9, Q8NI35 (Q8NI35 1530-1615): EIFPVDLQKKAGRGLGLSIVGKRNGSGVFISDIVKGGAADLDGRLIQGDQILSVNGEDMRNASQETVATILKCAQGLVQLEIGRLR
Sequence of GRIP2_7, Q9C0E4 (Q9C0E4 934-1023): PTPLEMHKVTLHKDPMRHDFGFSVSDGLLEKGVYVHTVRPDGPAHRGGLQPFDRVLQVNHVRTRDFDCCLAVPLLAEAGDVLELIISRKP
Sequence of GRID2IP_2, A4D2P6 (A4D2P6 272-370): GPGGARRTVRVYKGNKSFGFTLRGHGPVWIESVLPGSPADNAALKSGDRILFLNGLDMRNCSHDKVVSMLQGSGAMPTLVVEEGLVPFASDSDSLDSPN

For PDGEMMEVLI [AMOTL1, Q8IY63], the negative logarithm of the Kd (pKd) is 3.63 in the assay with SNTG1, Q9NSN8 (setting [1]); 3.76 with GORASP1, Q9BQQ3 (setting [1]); 3.58 with Inadl_9, Q8NI35 (setting [1]); “below the threshold” with GRIP1_2, Q9Y3R0 (setting [1]); “below the threshold” with GRID2IP_2, A4D2P6 (setting [1]); “below the threshold” in the assay with SNTG2, Q9NY99 (setting [1]). The pKd entry was “below the threshold” with Inadl_8, Q8NI35 (setting [1]); 3.47 in the assay with GRIP2_6, Q9C0E4 (setting [1]); “below the threshold” in the assay with SHANK1, Q9Y566 (setting [1]); “below the threshold” with MPDZ_5, O75970 (setting [1]); 5.29 in the assay with PARD3_3, Q8TEW0 (setting [1]); 3.58 with DLG2_3, Q15700 (setting [1]). Moreover, the pKd entry with APBA2_1, Q99767 (setting [1]) is “below the threshold”; with TJP3_3, O95049 (setting [1]), “below the threshold”; with APBA3_1, O96018 (setting [1]) it was “below the threshold”; with NHERF3_1, Q5T2W1 (setting [1]), 4.05; with APBA1_1, Q02410 (setting [1]), “below the threshold”; with AHNAK1, Q09666 (setting [1]), “below the threshold”. The pKd result with GRIP2_7, Q9C0E4 (setting [1]) is on record as “below the threshold”; with DLG1_3, Q12959 (setting [1]) it was “below the threshold”; in the assay with GRIP1_5, Q9Y3R0 (setting [1]), “below the threshold”; with SNTB1, Q13884 (setting [1]), “below the threshold”; with MAGI1_1, Q96QZ7 (setting [1]) it was “below the threshold”; with GOPC, Q9HD26 (setting [1]) it was “below the threshold”.
As to RRVRKLPSTTL [RPS6KA1_-3P, Q15418], the pKd with SNTG1, Q9NSN8 (setting [2]) is 3.94; with GORASP1, Q9BQQ3 (setting [2]), “below the threshold”; with Inadl_9, Q8NI35 (setting [2]) it was “below the threshold”; in the assay with GRIP1_2, Q9Y3R0 (setting [2]), “below the threshold”; in the assay with GRID2IP_2, A4D2P6 (setting [2]), “below the threshold”; with SNTG2, Q9NY99 (setting [2]), 4.76. For the same molecule, the pKd entry with Inadl_8, Q8NI35 (setting [2]) was “below the threshold”; with GRIP2_6, Q9C0E4 (setting [2]) it was “below the threshold”; in the assay with SHANK1, Q9Y566 (setting [2]), “below the threshold”; with MPDZ_5, O75970 (setting [2]), “below the threshold”; with PARD3_3, Q8TEW0 (setting [2]) it was 3.76; with DLG2_3, Q15700 (setting [2]), “below the threshold”. For the same molecule, the pKd entry in the assay with APBA2_1, Q99767 (setting [2]) is on record as “below the threshold”; in the assay with TJP3_3, O95049 (setting [2]) it was “below the threshold”; with APBA3_1, O96018 (setting [2]), “below the threshold”; with NHERF3_1, Q5T2W1 (setting [2]), “below the threshold”; with APBA1_1, Q02410 (setting [2]), “below the threshold”; with AHNAK1, Q09666 (setting [2]), “below the threshold”. The pKd result was “below the threshold” in the assay with GRIP2_7, Q9C0E4 (setting [2]); “below the threshold” in the assay with DLG1_3, Q12959 (setting [2]); “below the threshold” with GRIP1_5, Q9Y3R0 (setting [2]); 4.39 with SNTB1, Q13884 (setting [2]); “below the threshold” with MAGI1_1, Q96QZ7 (setting [2]); “below the threshold” with GOPC, Q9HD26 (setting [2]).
Turning to DEDQHTQITKV [PTEN_Ac, P60484], the pKd with SNTG1, Q9NSN8 (setting [3]) was 4.45; in the assay with GORASP1, Q9BQQ3 (setting [3]) it was 4.04; in the assay with Inadl_9, Q8NI35 (setting [3]), 3.67; in the assay with GRIP1_2, Q9Y3R0 (setting [3]), “below the threshold”; with GRID2IP_2, A4D2P6 (setting [3]) it was 4.39; with SNTG2, Q9NY99 (setting [3]), 3.78. Also, the pKd was 4.82 in the assay with Inadl_8, Q8NI35 (setting [3]); “below the threshold” with GRIP2_6, Q9C0E4 (setting [3]); 4.18 with SHANK1, Q9Y566 (setting [3]); “below the threshold” with MPDZ_5, O75970 (setting [3]); 3.97 in the assay with PARD3_3, Q8TEW0 (setting [3]); “below the threshold” in the assay with DLG2_3, Q15700 (setting [3]). The pKd entry with APBA2_1, Q99767 (setting [3]) is “below the threshold”; in the assay with TJP3_3, O95049 (setting [3]), “below the threshold”; with APBA3_1, O96018 (setting [3]), “below the threshold”; with NHERF3_1, Q5T2W1 (setting [3]), 4.16; with APBA1_1, Q02410 (setting [3]) it was “below the threshold”; in the assay with AHNAK1, Q09666 (setting [3]) it was “below the threshold”. In addition, the pKd result with GRIP2_7, Q9C0E4 (setting [3]) was “below the threshold”; with DLG1_3, Q12959 (setting [3]), “below the threshold”; with GRIP1_5, Q9Y3R0 (setting [3]), “below the threshold”; with SNTB1, Q13884 (setting [3]), 4.79; in the assay with MAGI1_1, Q96QZ7 (setting [3]), “below the threshold”; with GOPC, Q9HD26 (setting [3]), 4.19.
As to FEEEAEEEVA [TUBB4B, P68371], the pKd result in the assay with SNTG1, Q9NSN8 (setting [1]) is recorded as “below the threshold”; in the assay with GORASP1, Q9BQQ3 (setting [1]), “below the threshold”; with Inadl_9, Q8NI35 (setting [1]), “below the threshold”; in the assay with GRIP1_2, Q9Y3R0 (setting [1]) it was “below the threshold”; with GRID2IP_2, A4D2P6 (setting [1]), “below the threshold”; with SNTG2, Q9NY99 (setting [1]) it was “below the threshold”. For the same molecule, the pKd result in the assay with Inadl_8, Q8NI35 (setting [1]) is “below the threshold”; with GRIP2_6, Q9C0E4 (setting [1]) it was “below the threshold”; with SHANK1, Q9Y566 (setting [1]), “below the threshold”; with MPDZ_5, O75970 (setting [1]), “below the threshold”; in the assay with PARD3_3, Q8TEW0 (setting [1]), “below the threshold”; with DLG2_3, Q15700 (setting [1]), “below the threshold”. Besides, the pKd entry is “below the threshold” with APBA2_1, Q99767 (setting [1]); “below the threshold” in the assay with TJP3_3, O95049 (setting [1]); “below the threshold” with APBA3_1, O96018 (setting [1]); “below the threshold” with NHERF3_1, Q5T2W1 (setting [1]); “below the threshold” with APBA1_1, Q02410 (setting [1]); “below the threshold” in the assay with AHNAK1, Q09666 (setting [1]). For the same molecule, the pKd entry with GRIP2_7, Q9C0E4 (setting [1]) is “below the threshold”; with DLG1_3, Q12959 (setting [1]), “below the threshold”; with GRIP1_5, Q9Y3R0 (setting [1]), “below the threshold”; with SNTB1, Q13884 (setting [1]), “below the threshold”; in the assay with MAGI1_1, Q96QZ7 (setting [1]), “below the threshold”; with GOPC, Q9HD26 (setting [1]) it was “below the threshold”.

Usually pKd stands for −log10 of the Kd, conventionally taken in molar units.
